Reference: patent US20110201105A1, “LACTATION-ASSOCIATED POLYPEPTIDES” (Dairy Australia Limited, priority 2007, published 2011)

B1: LAM 32.9: bovine cathelicidin variant, SEQ ID NO 173 (protein)
chain: METPRASLSLGRCSLWLLLLGLVLPSASAQALSYREAVLRAVDQFNERSSEANLYRLLELDPTPNDVSYEGIWAGRPASWGAGRQIRGRRMSPNPVSPTLTHDQDLDPGTRKPVSFRVKETDCPRTSQQPLEQCDFKENGVSLGAGEKNGRCFPGIGQRAWGRLPIPGRRPGGYGHRGFSLTLNLPFQLVKTVCGTARHQHN
B2: LAM 32.10: bovine cathelicidin variant, SEQ ID NO 175 (protein)
chain: METQRASLSLGRWSLWLLLLGLVLPSASAQALSYREAMLRAVDQLNERSSEAHLYRLLELDPPPDMSWGGDRGRAFLLPALATLLPLHSGCTSCQEGTFPSRWVPTSSRKASQTWVISQHQASCLSISAVGIGTLHTWLKFPGLLGAPGMGGS
B3: LAM 32.11: bovine cathelicidin variant, SEQ ID NO 177 (protein)
chain: METQRASLSLGRWSLWLLLLGLVLPSASAQALSYREAMLRAVDQLNERSSEAHLYRLLGASTRPPSGHELGRGTGDEPFSCPALATLLPLHSGCTSCQEGTFPSRWVPTSSRKAVSRDLGHLPAPGYPCLSISAVGIGTLHTWLRFPGLLGSSRDGGVTGSVR
B4: LAM 32a: splice variant of tammar wallaby LAM 32, SEQ ID NO 215 (protein)
chain: MRDSTMQVLLLVLGLLSLMTSLACAQDQPYQDVLNRFIQEYNTKSESESLFRLSVLNLPPEESNDPAVPLLKFTIRETVCPKTEHRNADECDFKKNGLVKQCIGTIDLDSPNPSVDISCDRPAKVKRGLWESLKRKATKLGDDIRNTLRNFKIKFPVPRQG
B5: LAM 32.8: bovine cathelicidin variant, SEQ ID NO 171 (protein)
chain: METPRASLSLGRWSLWLLLLGLALPSAQRPGPQLQGGRASCLMESASMKKSSEANLYRLLELDPPPKEDDENPNIPKPVSFRVKETVCPRTSQQSPEQCDFKENGLLKYCVGTVSRWDQVGSNFDITCAAPQSVGGLQAWVGRYYVLGKSMAQLLFQ
B6: LAM 32b: splice variant of tammar wallaby LAM 32, SEQ ID NO 207 (protein)
chain: MRGLTMQVLLLVLGLLSLMTPLGYAQDQPYQDVLNRFIQEYNTKSESESLFRLSVLNLPSQESNDPTAPQLLKFTIRETVCSKSEHRNPEECDFKKNGVRVSWAGKGF

Assays:
AGS cells = assay: Cell growth using bovine cathelicidin variants in AGS cells (SRB assay); format: cell-based, human; set-up: unit not given here; settings: 72 hours; for cell growth Replicate 3: -ve control 0.233; for cell growth Replicate 1: -ve control 0.247; for cell growth Replicate 4: -ve control 0.265; for cell growth Replicate 2: -ve control 0.316; for cell growth Mean: -ve control mean 0.265
Protocol: A cellular growth assay was performed using seven bovine cathelicidin (CATHL) variants, namely CATHL1, 4, and 6 which are known in the art (the relevant sequences can be obtained using the following hyperlink: http://www.ncbi.nlm.nih.gov/entrez/query.fcqi?db=unigene&cmd=search&term=cathelicidin) and bovine Cathelicidins 8, 9, 10 and 11 (being LAMs 32.8, 32.9, 32.10 and 32.11, respectively) as identified herein and which are derived from LAM 32. The bovine cathelicidin associated LAMs were derived by sequence comparison to the tammar polynucleotide sequence of LAM 32.
The growth rate of AGS cells was assessed in the presence of the cathelicidins. Equal numbers of human gastric epithelial AGS cells were cultured in either control media or media conditioned with bovine cathelicidins for 72 hours in a 1:10 dilution of serum and antibiotic-free Optimem. Cells were then fixed and a Sulforhodamine B (SRB) colorimetric assay was undertaken as described in Journal of Immunological Methods 208: 151-158, K. T. Papazisis, G. D. Geromichalos, K. A. Dimitriadis, A. H. Kortsaris (1997), ‘Optimization of the sulforhodamine B colorimetric assay’.
Briefly, cells were fixed directly by incubation with 10% trichloroacetic acid for 1 hour at 4° C., washed with water, air-dried overnight and then stained with 0.4% w/v sulforhodamine B, 1% acetic acid solution for 10 minutes at room temperature. Cell were again washed with 1% acetic acid and air-dried, then counted in triplicate.

chicks = assay: Chick growth assay (in ovo injection, weight at hatching); format: in vivo; settings: for Chick weight: bovine polypeptides in conditioned media, 1 ml in ovo on day 16 of incubation, weighed on day of hatching, Saline 51.0; for death / overall condition of chick: in ovo injection on day 16 of incubation
Protocol: FIG. 5. Chick growth assay by measuring weight. 10 LAMs (being bovine homologues having homology to specific Tammar ESTs), 3 known bovine cathelicidins, and four bovine cathelicidin variants were tested. Conditioned media containing a LAM polypeptides or bovine cathelicidins or variants thereof was diluted in a total of 1 ml of normal saline. Eggs on day 16 of incubation were injected with 1 ml of the media containing the into the broad end of the egg. Chicks were weighed on day of hatching. The overall condition of the chick was assessed including the possible presence of stumpy legs and/or loss of down feathers.
Conditioned media containing LAM polypeptides or bovine cathelicidins or variants thereof were diluted in a total of 1 ml of normal saline. Eggs on day 16 of incubation were injected in ovo with 1 ml of LAM polypeptides or bovine cathelicidins or variants thereof into the broad end of the egg. Chicks were weighed on day of hatching. Controls included saline only, or saline and 10 mg/ml of a peptide as a random peptide control.
As set out in Table 23, the left column indicates the polypeptide used in the assay while the right column contains chick weight in grams as a measurement of chick growth. Bolded numbers represent a chick(s) larger than the controls and more than 2 standard deviations from the mean. In addition, bolded numbers represent chicks that have been killed. The mean represents the weight of all the chicks tested within this experiment.

HC11 cells = assay: Cell growth with cathelicidins in HC11 cells; format: cell-based, mouse; set-up: cell growth Rep. 1 / cell growth Rep. 2 / cell growth Rep. 3 / cell growth Rep. 4 / cell growth Mean: unit not given here; settings: 72 hours; for cell growth Rep. 1: 1:10 dilution conditioned media, -ve control 0.727; for cell growth Rep. 2: -ve control 0.76; for cell growth Rep. 3: -ve control 0.786; for cell growth Rep. 4: -ve control 0.808; for cell growth Mean: -ve control mean 0.77025; for cell growth versus control (significance): P<0.05 t-test
Protocol: FIG. 2. Cellular growth assay with HC11 cells. Mouse mammary epithelial cells, HC11 cells, were grown in media conditioned with: mock transfection (control), LAM32, LAM32a or LAM32b for 72 hours. Samples were performed in triplicate and the cells from each triplicate counted in triplicate. […] LAM 32 is represented as set forth in SEQ ID NO: 188, and two splice variants thereof, designated LAM32a and 32b as set forth in SEQ ID NO: 215 and 207 respectively.
As shown in FIG. 2 equal numbers of mouse mammary HC11 cells were grown in the presence of either a negative control or tammar wallaby cathelicidin-associated polypeptide, namely LAM 32 (SEQ ID NO: 188), LAM 32a (SEQ ID NO: 215) or LAM 32b (SEQ ID NO: 207) in order to determine the effect of these LAMs on cellular growth.
(§1) HC11 cells were initially plated at 50 percent confluency and cultured for 72 hours in a 1:10 dilution of serum and antibiotic free Optimem and media conditioned with cathelicidin associated polypeptides. The medium was removed and then washed gently for 2 minutes with Mg^2+- and Ca^2+-free phosphate buffered saline (PBS), 0.05% Trypsin and 1:5000 Versene to disrupt cell aggregates. Cells were collected by scraping and washed twice by resuspension in complete medium followed by centrifugation. The cells were again resuspended and counted in triplicate using a Luber haemocytometer.
(§2) The cells were counted in triplicate using a Luber haemocytometer. The negative control was media alone (i.e. conditioned media […] insertless vector). The samples were deemed statistically significant using a t-test comparing the control with the sample if the values of cell growth were 2 standard deviations higher than the mean of the negative control.

mouse ES cells = assay: Cell growth with cathelicidins in mouse ES cells; format: cell-based; set-up: cell growth Rep. 1 / cell growth Rep. 2 / cell growth Rep. 3 / cell growth Mean: unit not given here; settings: 24 hours; for cell growth Rep. 1: 1:10 dilution conditioned media, -ve control 0.34; for cell growth Rep. 3: -ve control 0.352; for cell growth Rep. 2: -ve control 0.474; for cell growth Mean: -ve control mean 0.388666667
Protocol: as §1, with “Mouse ES” for “HC11”, “were” for “were initially”, “24” for “72”, “saline” for “saline (PBS),”
as §2

Molecule	cell growth Replicate 3 (AGS cells)	cell growth Replicate 1 (AGS cells)	cell growth Replicate 4 (AGS cells)	cell growth Replicate 2 (AGS cells)	cell growth Mean (AGS cells)	Chick weight (chicks)	death / overall condition of chick (chicks)	chick size versus controls (chicks; body weight relative to mean/median of all chicks tested)	cell growth Rep. 1 (HC11 cells)	cell growth Rep. 2 (HC11 cells)	cell growth Rep. 3 (HC11 cells)	cell growth Rep. 4 (HC11 cells)	cell growth Mean (HC11 cells)	cell growth versus control (significance) (HC11 cells)	cell growth versus control (significance) (mouse ES cells)	cell growth Rep. 1 (mouse ES cells)	cell growth Rep. 3 (mouse ES cells)	cell growth Rep. 2 (mouse ES cells)	cell growth Mean (mouse ES cells)
CATHL4: bovine cathelicidin 4, known in the art (ILPWKWPWWPWRR; UniProt P33046 131-143, looked up) [reference compound]	0.409	0.626	0.500	0.465	0.500	49.7 grams													
B1	0.220	0.246	0.229	0.220	0.229	46.5 grams	caused stumpy legs and loss of down												
B2	0.534	0.602	0.514	0.405	0.514	53.8 grams													
B3	0.563	0.365	0.431	0.366	0.431	59^ grams		produced a chick larger than the controls											
B4									0.958	0.977	1.008	1.102	1.011	significantly more cells	significantly different growth from the control	0.575	0.517	0.605	0.5657
B5	0.261	0.441	0.361	0.382	0.361	Killed	caused death of chicks												
B6									0.89	0.841	0.862	0.832	0.8562	significantly more cells	significantly different growth from the control	0.676	0.693	0.677	0.682
